Data taken from paper PMC4380498, “Molecular Insights into Frataxin-Mediated Iron Supply for Heme Biosynthesis in Bacillus subtilis” (PLoS ONE, 2015).
One block for each binder: values may come before it.

Key:
[1] = target: the molecule itself; test: SEC; separation of the apo- and holo-forms of bsNos by size-exclusion chromatography after affinity purification from the crude protein extract
[2] = target: T1, Bacillus subtilis ferrochelatase HemH, recombinant Strep-tag II variant (Bacillus subtilis 168, UniProt P32396 1-310); test: MST; 50 nM fluorescently labelled holo-Fra (iron-charged); HemH titrated from 42.6 μM to 0.01 μM in TRIS-based NT binding analysis buffer; 25°C; Monolith NT.115; details: both partners purified
T1 construct: ferrochelatase HemH of Bacillus subtilis 168, gene amplified from genomic DNA; Expressed from the pASK-IBA3 vector; also called HemH-Strep II; HemH-StrepII; not shown: Strep-tag II, C-terminal, kept
T1 sequence: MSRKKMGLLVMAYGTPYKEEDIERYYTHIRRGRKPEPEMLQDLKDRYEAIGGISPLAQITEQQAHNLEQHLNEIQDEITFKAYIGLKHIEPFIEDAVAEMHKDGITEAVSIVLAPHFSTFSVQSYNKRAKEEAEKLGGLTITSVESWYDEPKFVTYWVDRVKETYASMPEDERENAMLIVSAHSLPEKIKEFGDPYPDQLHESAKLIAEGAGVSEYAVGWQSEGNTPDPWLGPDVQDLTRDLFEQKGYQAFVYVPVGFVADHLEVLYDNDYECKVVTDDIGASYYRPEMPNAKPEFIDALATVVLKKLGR

[3] = target: T1, Bacillus subtilis ferrochelatase HemH, …; test: cell-based or functional assay

B1: Bacillus subtilis nitric oxide synthase bsNos, recombinant His6-tagged (enzyme, Bacillus subtilis 168, UniProt O34453 1-363, looked up)
chain: MEEKEILWNEAKAFIAACYQELGKEEEVKDRLADIKSEIDLTGSYVHTKEELEHGAKMAWRNSNRCIGRLFWNSLNVIDRRDVRTKEEVRDALFHHIETATNNGKIRPTITIFPPEEKGEKQVEIWNHQLIRYAGYESDGERIGDPASCSLTAACEELGWRGERTDFDLLPLIFRMKGDEQPVWYELPRSLVIEVPITHPDIEAFSDLELKWYGVPIISDMKLEVGGIHYNAAPFNGWYMGTEIGARNLADEKRYDKLKKVASVIGIAADYNTDLWKDQALVELNKAVLHSYKKQGVSIVDHHTAASQFKRFEEQEEEAGRKLTGDWTWLIPPISPAATHIFHRSYDNSIVKPNYFYQDKPYE
notes: nitric oxide synthase bsNos of Bacillus subtilis 168, gene amplified from genomic DNA; The holo-form (with heme b) is called dimeric and the apo-form monomeric; The two were separated by size-exclusion chromatography; also called Nos-His6; holo-bsNos; not shown: His6, N-terminal, kept
stoichiometry N [1]: 2

Kd [2]: 1630 ± 20 nM
B2: Bacillus subtilis frataxin homologue Fra, recombinant His6-tagged (natural protein, Bacillus subtilis 168)
chain: MDVFSEYLAGIADPFHRERTEEVLTWIKNKYPNLHTEIKWNQPMFTDHGTFIIGFSVSKKHLAVAPEKVTIAHVEDDIVKAGYDYTEQLIRIPWNGPVDYTLLEKMIEFNILDKADCSTFWRK
notes: frataxin homologue Fra of Bacillus subtilis 168, gene amplified from genomic DNA; Used iron-loaded (holo-Fra, anaerobic incubation with FeCl2) or iron-free (apo-Fra); For MST it was labelled with the cysteine-reactive Monolith NT.115 Protein Labeling Kit RED; The methods say N-terminal His6-tag fusions, while legends print Fra-His6; also called Fra-His6; holo-Fra; not shown: His6, N-terminal, kept
kcat(obs) of the frataxin-dependent conversion of protoporphyrin IX into heme b by HemH (holo-Fra varied between 0.1 and 10 μM, Michaelis-Menten fit) [3]: 0.925 s⁻¹
